The text below walks through data of the supplement of paper PMC11246515.

The nature of this data set: total protein half-life in vivo (active degradation + dilution); higher = more stable protein.
Setting [1] is: E. coli NCM3722 delta-clpP delta-lon delta-hslV, growth: N-lim chemostat, doubling time 6 h.
[2] abbreviates: E. coli NCM3722 delta-clpP, growth: N-lim chemostat, doubling time 6 h.
[3] abbreviates: E. coli NCM3722 delta-hslV, growth: N-lim chemostat, doubling time 6 h.
Where [4] appears, read: E. coli NCM3722 delta-lon, growth: N-lim chemostat, doubling time 6 h.
[5] abbreviates: E. coli NCM3722 delta-smpB, growth: N-lim chemostat, doubling time 6 h.
[6] abbreviates: wild type E. coli NCM3722, growth: C-lim chemostat, doubling time 3 h.
Where [7] appears, read: wild type E. coli NCM3722, growth: C-lim chemostat, doubling time 6 h.
Where [8] appears, read: wild type E. coli NCM3722, growth: C-lim chemostat, doubling time 12 h.
[9] abbreviates: wild type E. coli NCM3722, growth: N-lim chemostat, doubling time 6 h.
[10] abbreviates: wild type E. coli NCM3722, growth: P-lim chemostat, doubling time 12 h.
Where [11] appears, read: wild type E. coli NCM3722, growth: N-lim chemostat, doubling time 12 h.
Where [12] appears, read: wild type E. coli NCM3722, growth: P-lim chemostat, doubling time 6 h.

± gives the standard deviation of the averaged measurements.

Turning to “MIEKIWSGESPLWRLLLPLSWLYGLVSGAIRLCYKLKLKRAWRAPVPVVVVGNLTAGGNGKTPVVVWLVEQLQQRGIRVGVVSRGYGGKAESYPLLLSADTTTAQAGDEPVLIYQRTDAPVAVSPVRSDAVKAILAQHPDVQIIVTDDGLQHYRLARDVEIVVIDGVRRFGNGWWLPAGPMRERAGRLKSVDAVIVNGGVPRSGEIPMHLLPGQAVNLRTGTRCDVAQLEHVVAMAGIGHPPRFFATLKMCGVQPEKCVPLADHQSLNHADVSALVSAGQTLVMTEKDAVKCRAFAEENWWYLPVDAQLSGDEPAKLLTQLTLLASGN”, the “total protein half-life in vivo” value is, setting by setting: under setting [1], 6.05 ± 0.42 h; under setting [2], 6.49 h; under setting [3], 6.52 ± 1.2 h; under setting [4], 6.39 ± 0.34 h; under setting [5], 5.71 ± 0.64 h; under setting [6], 3.11 ± 0.41 h. The “total protein half-life in vivo” value under setting [7] turned out to be 7.25 ± 0.18 h, the “total protein half-life in vivo” value under setting [8] is 8.44 h, the “total protein half-life in vivo” value under setting [9] turned out to be 5.52 h and the “total protein half-life in vivo” value under setting [10] came to 13.8 ± 2 h.
Turning to “MTTILKHLPVGQRIGIAFSGGLDTSAALLWMRQKGAVPYAYTANLGQPDEEDYDAIPRRAMEYGAENARLIDCRKQLVAEGIAAIQCGAFHNTTGGLTYFNTTPLGRAVTGTMLVAAMKEDGVNIWGDGSTYKGNDIERFYRYGLLTNAELQIYKPWLDTDFIDELGGRHEMSEFMIACGFDYKMSVEKAYSTDSNMLGATHEAKDLEYLNSSVKIVNPIMGVKFWDESVKIPAEEVTVRFEQGHPVALNGKTFSDDVEMMLEANRIGGRHGLGMSDQIENRIIEAKSRGIYEAPGMALLHIAYERLLTGIHNEDTIEQYHAHGRQLGRLLYQGRWFDSQALMLRDSLQRWVASQITGEVTLELRRGNDYSILNTVSENLTYKPERLTMEKGDSVFSPDDRIGQLTMRNLDITDTREKLFGYAKTGLLSSSAASGVPQVENLENKGQ [P0A6E4]”, the “total protein half-life in vivo” value stood at 4.11 ± 0.6 h under setting [1]; 3.3 ± 0.15 h under setting [2]; 3.2 ± 0.23 h under setting [3]; 3.89 ± 0.34 h under setting [4]; 3.26 ± 0.15 h under setting [5]; 3.17 ± 0.06 h under setting [6]. In addition, the “total protein half-life in vivo” value under setting [7] is 5.27 ± 0.081 h; the “total protein half-life in vivo” value under setting [8] stood at 9.91 ± 0.69 h; the “total protein half-life in vivo” value under setting [9] was 3.39 ± 0.12 h; the “total protein half-life in vivo” value under setting [11] turned out to be 4.82 ± 0.071 h; the “total protein half-life in vivo” value under setting [12] is 5.69 ± 0.15 h; the “total protein half-life in vivo” value under setting [10] turned out to be 10.7 ± 0.7 h.
In the case of “MIASKFGIGQQVRHSLLGYLGVVVDIDPVYSLSEPSPDELAVNDELRAAPWYHVVMEDDNGLPVHTYLAEAQLSSELQDEHPEQPSMDELAQTIRKQLQAPRLRN [P0AB20]”, the “total protein half-life in vivo” value was 3.23 ± 0.48 h under setting [1] and 1.99 ± 0.27 h under setting [4].
For the sequence “MYLSKVIIARAWSRDLYQLHQGLWHLFPNRPDAARDFLFHVEKRNTPEGCHVLLQSAQMPVSTAVATVIKTKQVEFQLQVGVPLYFRLRANPIKTILDNQKRLDSKGNIKRCRVPLIKEAEQIAWLQRKLGNAARVEDVHPISERPQYFSGDGKSGKIQTVCFEGVLTINDAPALIDLVQQGIGPAKSMGCGLLSLAPL”, the “total protein half-life in vivo” value is 5.96 ± 0.57 h under setting [1] and 1.61 h under setting [6].
Regarding “MVKSQPILRYILRGIPAIAVAVLLSACSANNTAKNMHPETRAVGSETSSLQASQDEFENLVRNVDVKSRIMDQYADWKGVRYRLGGSTKKGIDCSGFVQRTFREQFGLELPRSTYEQQEMGKSVSRSNLRTGDLVLFRAGSTGRHVGIYIGNNQFVHASTSSGVIISSMNEPYWKKRYNEARRVLSRS [P0AFV4]”, the “total protein half-life in vivo” value reads like this: under setting [1], 2.68 ± 0.98 h; under setting [2], 2.09 ± 0.79 h; under setting [3], 2.61 ± 1.4 h; under setting [4], 2.34 ± 0.085 h; under setting [5], 2.33 ± 0.45 h; under setting [6], 1.02 ± 0.41 h. In addition, the “total protein half-life in vivo” value under setting [7] turned out to be 3.38 ± 0.45 h; the “total protein half-life in vivo” value under setting [8] was found to be 7.8 ± 1.4 h; the “total protein half-life in vivo” value under setting [9] was determined as 2.19 ± 1.5 h; the “total protein half-life in vivo” value under setting [11] came to 4.29 ± 1.6 h; the “total protein half-life in vivo” value under setting [12] is 3.39 ± 0.15 h; the “total protein half-life in vivo” value under setting [10] was determined as 4.64 ± 0.49 h.
Consider “MTKLKLLALGVLIATSAGVAHAEGKFSLGAGVGVVEHPYKDYDTDVYPVPVINYEGDNFWFRGLGGGYYLWNDATDKLSITAYWSPLYFKAKDSGDHQMRHLDDRKSTMMAGLSYAHFTQYGYLRTTLAGDTLDNSNGIVWDMAWLYRYTNGGLTVTPGIGVQWNSENQNEYYYGVSRKESARSGLRGYNPNDSWSPYLELSASYNFLGDWSVYGTARYTRLSDEVTDSPMVDKSWTGLISTGITYKF [P0A908]”, for which the “total protein half-life in vivo” value worked out at 6.14 ± 1.1 h under setting [1]; 7.17 ± 0.13 h under setting [2]; 6.01 ± 1.1 h under setting [3]; 6.05 ± 1 h under setting [4]; 5.96 ± 0.079 h under setting [5]; 2.55 ± 0.14 h under setting [6]. The “total protein half-life in vivo” value reads like this: under setting [7], 5.81 ± 0.46 h; under setting [8], 13.6 ± 2.3 h; under setting [9], 6.35 ± 0.63 h; under setting [11], 14 ± 1.4 h; under setting [12], 5.7 ± 0.23 h.
Turning to “MDHRLLEIIACPVCNGKLWYNQEKQELICKLDNLAFPLRDGIPVLLETEARVLTADESKS [P0AAZ7]”, the “total protein half-life in vivo” value runs as follows: under setting [1], above 8 h; under setting [2], 5.82 ± 0.15 h; under setting [4], 4.19 ± 0.043 h; under setting [5], 4.65 ± 1.2 h; under setting [6], 1.64 ± 0.1 h; under setting [7], 4.73 ± 0.12 h. Besides, the “total protein half-life in vivo” value amounted to 8.88 ± 1.5 h under setting [8]; 3.05 ± 0.11 h under setting [9]; 6.3 ± 0.69 h under setting [11]; 3.69 ± 0.26 h under setting [12]; 7.87 ± 0.7 h under setting [10].
Turning to “MHPTGPHLGPDVLFRESNMKVTLTFNEQRRAAYRQQGLWGDASLADYWQQTARAMPDKIAVVDNHGASYTYSALDHAASCLANWMLAKGIESGDRIAFQLPGWCEFTVIYLACLKIGAVSVPLLPSWREAELVWVLNKCQAKMFFAPTLFKQTRPVDLILPLQNQLPQLQQIVGVDKLAPATSSLSLSQIIADNTSLTTAITTHGDELAAVLFTSGTEGLPKGVMLTHNNILASERAYCARLNLTWQDVFMMPAPLGHATGFLHGVTAPFLIGARSVLLDIFTPDACLALLEQQRCTCMLGATPFVYDLLNVLEKQPADLSALRFFLCGGTTIPKKVARECQQRGIKLLSVYGSTESSPHAVVNLDDPLSRFMHTDGYAAAGVEIKVVDDARKTLPPGCEGEEASRGPNVFMGYFDEPELTARALDEEGWYYSGDLCRMDEAGYIKITGRKKDIIVRGGENISSREVEDILLQHPKIHDACVVAMSDERLGERSCAYVVLKAPHHSLSLEEVVAFFSRKRVAKYKYPEHIVVIEKLPRTTSGKIQKFLLRKDIMRRLTQDVCEEIE”, the “total protein half-life in vivo” value under setting [1] came to 7.05 h.
For “MLDQVCQLARNAGDAIMQVYDGTKPMDVVSKADNSPVTAADIAAHTVIMDGLRTLTPDVPVLSEEDPPGWEVRQHWQRYWLVDPLDGTKEFIKRNGEFTVNIALIDHGKPILGVVYAPVMNVMYSAAEGKAWKEECGVRKQIQVRDARPPLVVISRSHADAELKEYLQQLGEHQTTSIGSSLKFCLVAEGQAQLYPRFGPTNIWDTAAGHAVAAAAGAHVHDWQGKPLDYTPRESFLNPGFRVSIY”, the “total protein half-life in vivo” value by setting is: under setting [1], 4.77 ± 0.078 h; under setting [2], 4.77 ± 0.62 h; under setting [3], 4.6 ± 0.36 h; under setting [4], 5.51 ± 1.2 h; under setting [5], 4.29 ± 0.011 h; under setting [6], 2.97 ± 0.26 h. Moreover, the “total protein half-life in vivo” value was found to be 5.69 ± 0.6 h under setting [7]; 10.58 ± 0.1 h under setting [8]; 4.76 ± 0.5 h under setting [9]; 7.931 ± 0.051 h under setting [11]; 6.3 ± 0.95 h under setting [12]; 10.7 ± 0.4 h under setting [10].
